Assay results: patent publication US20040138134A1
Like-named read-outs stand apart in the source and are kept apart here. Where no end group is shown, it is not given here.

How the values were obtained:
[1] = biological target: natriuretic peptide receptor on C3H10T1/2 cells; experiment: cell-based or functional assay
[2] = biological target: natriuretic peptide receptor on C3H10T1/2 cells; experiment: cell-based or functional assay; remark: listed apart in the source

- % relative binding (cGMP, Biotrak EIA, peptide at 10^-6 M) [1]: 100%
- % relative binding (cGMP, Biotrak EIA, peptide at 10^-6 M) [2]: 127%
B1: CNP 5-22 (17-mer, cyclic domain of CNP) (peptide)
chain: CFGLKLDRIGSMSGLGC
modifications: not fully specified (bridges); ends and bridges not checked
